Assay results as given in paper PMC10136936.

Target: Recombinant hemagglutinin from influenza A/California/04/2009 (H1N1), amino acids 1-519 (Influenza A/California/04/2009 (H1N1)) (UniProt C3W5S1)
Test: SEC

Recombinant hemagglutinin from influenza A/California/04/2009 (H1N1), amino acids 1-519 (from UniProt C3W5S1 1-519) (domain or fragment)
stoichiometry N: 3
